The target in this experiment is PtoMYB221 fused to Cub (split-ubiquitin bait) (Populus tomentosa).

In turn, “full-length PtoUBC34 fused to Nub (split-ubiquitin prey) (from UniProt A0A482P071 1-235) (enzyme)” returned a decrease in LUC activity by 2.56 μg PtoMYB221 effector plasmid against the control without PtoMYB221, with 600 to 1200 ng PtoUBC34 (35.16% with 1200 ng; 72.66% when no exogenous PtoUBC34 was added) of 54.8%.

The values are drawn from article PMC6416899.
